According to paper PMC6258031 (Structure (London, England : 1993), 2017):
Substitutions are numbered along the chain they refer to. Names and notes keep the numbering of the source. Non-standard residues stand in square brackets, D forms with d. SeMet = C[Se]CC[C@H](N)C(=O)O

T1: Bicc1 SAM F920E (human, UniProt Q9H694 870-939, F920E)
T1 sequence (looked up): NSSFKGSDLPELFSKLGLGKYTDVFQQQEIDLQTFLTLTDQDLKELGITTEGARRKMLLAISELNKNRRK

T2: ANKS3 SAM F472E (human, UniProt Q6ZW76 421-490, F472E)
T2 sequence (looked up): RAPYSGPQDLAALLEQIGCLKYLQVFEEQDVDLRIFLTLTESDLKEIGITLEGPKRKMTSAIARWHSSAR

B1: ANKS3 SAM I455E (domain or fragment, human, UniProt Q6ZW76 421-490, looked up)
chain: T2 sequence (looked up) with I35E, E52F
B2: Bicc1 SAM E898K (domain or fragment, human, UniProt Q9H694 870-939, looked up)
chain: T1 sequence (looked up) with E29K, E51F
B3: Bicc1 SAM R924E (native) (domain or fragment, human, UniProt Q9H694 870-939, looked up)
chain: T1 sequence (looked up) with E51F, R55E
B4: Bicc1 SAM D911K (domain or fragment, human, UniProt Q9H694 870-939, looked up)
chain: T1 sequence (looked up) with D42K, E51F
B5: Bicc1 SAM R924E SeMet (domain or fragment, human, UniProt Q9H694 870-939, looked up)
chain: NSSFKGSDLPELFSKLGLGKYTDVFQQQEIDLQTFLTLTDQDLKELGITTFGAREK[SeMet]LLAISELNKNRRK

Assays:
ANKS6 SAM (Homo sapiens) = ANKS6 SAM (Homo sapiens) (UniProt Q68DC2); details: cited from earlier work
Chain of ANKS6 SAM (Homo sapiens) (Q68DC2 770-839): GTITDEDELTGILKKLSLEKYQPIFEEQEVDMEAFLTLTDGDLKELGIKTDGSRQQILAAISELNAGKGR

Bicc1 SAM F920E = biological target: T1, Bicc1 SAM F920E; assay: SEC-MALS
Bicc1 SAM R924E (native) = biological target: B3; assay: SPR
ANKS3 SAM F472E = biological target: T2, ANKS3 SAM F472E; assay: SPR
crystal structure = biological target: the molecule itself; assay: crystal structure

Row | Kd (Bicc1 SAM R924E (native)) | Kd (ANKS3 SAM F472E) | Molecule | binding result (crystal structure) | other results
1 |  |  | ANKS3 SAM (from UniProt Q6ZW76) |  | Kd (ANKS6 SAM (Homo sapiens)): 249 nM
2 | 2200 ± 100 nM |  | B1 |  | binding result (Bicc1 SAM F920E): binds
3 | 1350 ± 100 nM | 1350 ± 100 nM | B2 |  | 
4 |  |  | B3 | binds | 
5 | 1350 ± 100 nM | 1350 ± 100 nM | B4 |  | 
6 |  |  | B5 | binds | 
